Target: T1, α-CT coiled-coil domain fused with HIS tag (α-CT-His), fluorescently labeled (Arabidopsis thaliana, fluorescently labeled using His-tag labeling kit (NanoTemper, MO-L008))
T1 construct: α-carboxyltransferase (α-CT), Arabidopsis thaliana, At2g38040, C-terminus / coiled-coil domain; also called C-terminus of α-CT; labeled α-CT coiled-coil domain; source: expressed in Luria Broth with IPTG (pET30a), purified on nickel agarose resin
Assay: MST; 100 nM α-CT-His labeled with His-tag labeling kit, mixed with serial dilutions of CTI in PBS buffer; 100% LED power, high MST power, NanoTemper Monolith NT.115
Settings: both partners purified

B1: coiled-coil domain of CTI1 fused with HIS tag (domain or fragment)
chain: PQISKAIAGADRKDLMRKLPKFIYDEEKALEKTRKVLAEKIAQLNSAIDDVSSQLKSEDTPNGAALSTDEIEATA
fold higher affinity than CTI2 (from KD values): 100 fold
fold higher affinity than CTI3 (from KD values): 10 fold
